The record followed here is patent publication CN112794907A (ANHUI ANKE BIOTECHNOLOGY GROUP CO LTD, dated 2021).

Assay [1] deals with T1, rhOX40-Avi-His-bio (human, UniProt P43489 29-214, biotin joined covalently to the Avi tag by BirA).
T1 construct: range 29-214; Biotinylated form of rhOX40-Avi-His, captured on the SA chip for SPR; also called 生物素标记的抗原rhOX40-Avi-His-bio; huOX40; not shown: Avi tag and His tag from the vector pCD-Avi-His
T1 sequence (looked up): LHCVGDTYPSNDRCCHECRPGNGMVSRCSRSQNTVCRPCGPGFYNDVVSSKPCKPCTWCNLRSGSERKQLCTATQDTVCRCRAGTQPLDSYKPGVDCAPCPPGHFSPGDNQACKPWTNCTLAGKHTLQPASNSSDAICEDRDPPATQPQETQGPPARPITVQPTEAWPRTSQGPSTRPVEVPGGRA
Put plainly: SPR. In general terms: Surface plasmon resonance follows binding to a sensor surface in real time, without labels.

The target in assay [2] is T1, rhOX40-Avi-His-bio. Put plainly: SPR, Biacore T200, rhOX40-Avi-His-bio on SA chip, antibody as analyte.

B1: 全人源抗huOX40单克隆抗体A2-1 (antibody, IgG1, V domains shown)
VH: DVQLQESGPGLVKPSETLSLTCTVSGDSVSDSGAYWVWIRQPPGKGLEWIGTIAPARGDTLYNPSLKSRVTISVDTSKNQFSLKLSSVTAADTSVYYCARDVWYIDYWGQGTLVTVSS
VL: DIVLTQSPATLSLSPGERATLSCRASEDIGTWLAWYQQKPGQAPRLLIYHTDLRATGVPTRFSGSGSGTDFTLTISSLEPEDFAVYYCQQYASYPLTFGQGTKLEIK
Consider B1, for which the “fold increase of affinity over A2” value with rhOX40-Avi-His-bio [1] is ~540 倍. The Kd (as a rule, the free concentration of one partner at which half of the binding sites on the other are occupied at equilibrium, for simple one-to-one binding) in the assay with rhOX40-Avi-His-bio [2] is around 200 pM.

B2: 全人源抗huOX40单克隆抗体B11-11 (antibody, IgG1, V domains shown)
VH: DVQLQESGPGLVKPSETLSLTCTVSGGSISADGFIWGWIRQPPGKGLEWIGGITTNGGYTDYNPSLKSRVTISVDTSKNQFSLKLSSVTAADTSVYYCARWFWDVSYGFDTWGQGTLVTVSS
VL: DIVMTQSPLSLPVTPGEPASISCRSSQSVDSDEYSFMHWYLQKPGQAPQLLIYRTDQRASGVPTRFSGSGSGTDFTLKISRVEAEDVGVYYCQQTPTYTFGQGTKLEIKR
Regarding B2, the “fold increase of affinity over B11” value with rhOX40-Avi-His-bio [1] is ~650 倍. Besides, the equilibrium dissociation constant (Kd) in the assay with rhOX40-Avi-His-bio [2] was around 776 pM.
